Experimental data as given in US20160244802A1 (UNIVERSITY OF NORTH CAROLINA AT CHAPEL HILL, published 2016).

Molecular target: the molecule itself
Assay: gel filtration (Sephacryl S300) native size against about 150 kDa on SDS-PAGE; inference
Description: The bound proteins were eluted with a 12-cv linear gradient from BD50 to BD450. The flow-through containing the HDM activity was adjusted to 700 mM ammonium sulfate before it was loaded onto a 22 mL Phenyl Sepharose® column (Pharmacia). The bound proteins were eluted with a cv linear gradient from BD700 to BD0. The active fractions, which eluted from 10-BD150-BD50, were combined and concentrated to 5 mL before they were loaded onto a 120 mL Sephacyl® S300 gel filtration column (Pharmacia). The active fractions, which eluted around 300 kDa, were pooled and loaded onto a 1 mL MonoS® column (Pharmacia) equilibrated with BC50. Bound proteins were eluted with a 20-cv linear gradient from BC50 to BC400. The active fractions eluted from BC100 to BC150. […]
To identify the protein(s) responsible for this demethylase activity, we monitored the enzymatic activity through five chromatography columns (Scheme 5). After purification of the 0.3 M P11 fraction through DEAE5PW and Phenyl Sepharose® columns, we determined that the native mass of the enzymatic activity was about 300 kDa as assessed by a Sephacyl® S300 column (FIG. 9A). […] To verify that JMJD1A was responsible for the detected demethylase activity, an antibody against this protein was generated and used to immunoprecipitate JMJD1A from the MonoS® column fractions 21-29. […]

B1: native JHDM2A (JMJD1A) purified from HeLa cells (enzyme)
chain: MVLTLGESWPVLVGRRFLSLSAADGSDGSHDSWDVERVAEWPWLSGTIRAVSHTDVTKKDLKVCVEFDGESWRKRRWIEVYSLLRRAFLVEHNLVLAERKSPEISERIVQWPAITYKPLLDKAGLGSITSVRFLGDQQRVFLSKDLLKPIQDVNSLRLSLTDNQIVSKEFQALIVKHLDESHLLKGDKNLVGSEVKIYSLDPSTQWFSATVINGNPASKTLQVNCEEIPALKIVDPSLIHVEVVHDNLVTCGNSARIGAVKRKSSENNGTLVSKQAKSCSEASPSMCPVQSVPTTVFKEILLGCTAATPPSKDPRQQSTPQAANSPPNLGAKIPQGCHKQSLPEEISSCLNTKSEALRTKPDVCKAGLLSKSSQIGTGDLKILTEPKGSCTQPKTNTDQENRLESVPQALTGLPKECLPTKASSKAELEIANPPELQKHLEHAPSPSDVSNAPEVKAGVNSDSPNNCSGKKVEPSALACRSQNLKESSVKVDNESCCSRSNNKIQNAPSRKSVLTDPAKLKKLQQSGEAFVQDDSCVNIVAQLPKCRECRLDSLRKDKEQQKDSPVFCRFFHFRRLQFNKHGVLRVEGFLTPNKYDNEAIGLWLPLTKNVVGIDLDTAKYILANIGDHFCQMVISEKEAMSTIEPHRQVAWKRAVKGVREMCDVCDTTIFNLHWVCPRCGFGVCVDCYRMKRKNCQQGAAYKTFSWLKCVKSQIHEPENLMPTQIIPGKALYDVGDIVHSVRAKWGIKANCPCSNRQFKLFSKPASKEDLKQTSLAGEKPTLGAVLQQNPSVLEPAAVGGEAASKPAGSMKPACPASTSPLNWLADLTSGNVNKENKEKQPTMPILKNEIKCLPPLPPLSKSSTVLHTFNSTILTPVSNNNSGFLRNLLNSSTGKTENGLKNTPKILDDIFASLVQNKTTSDLSKRPQGLTIKPSILGFDTPHYWLCDNRLLCLQDPNNKSNWNVFRECWKQGQPVMVSGVHHKLNSELWKPESFRKEFGEQEVDLVNCRTNEIITGATVGDFWDGFEDVPNRLKNEKEPMVLKLKDWPPGEDFRDMMPSRFDDLMANIPLPEYTRRDGKLNLASRLPNYFVRPDLGPKMYNAYGLITPEDRKYGTTNLHLDVSDAANVMVYVGIPKGQCEQEEEVLKTIQDGDSDELTIKRFIEGKEKPGALWHIYAAKDTEKIREFLKKVSEEQGQENPADHDPIHDQSWYLDRSLRKRLHQEYGVQGWAIVQFLGDVVFIPAGAPHQVHNLYSCIKVAEDFVSPEHVKHCFWLTQEFRYLSQTHTNHEDKLQVKNVIYHAVKDAVAMLKASESSFGKP
notes: Endogenous protein in MonoS column fractions from HeLa nuclear extract; also called TSGA
binding result: binds
